The assay concerns the target Bcl-xL∆L∆CT (C-terminal and loop-truncated Bcl-xL). The experiment in a line: SAXS; purified OM-induced Bcl-xL dimer, 1 mg/ml and 3 mg/ml, 15 °C; mass from forward scattering against lysozyme.

Here are results for 1 substance from PMC4448555.

As usually defined, the stoichiometry N is a count of units in the complex or per binding partner. The substance “Bcl-xL∆L∆CT (C-terminal and loop-truncated Bcl-xL) (domain or fragment)” returned a stoichiometry N of 2.
